Measurements published in paper PMC7022901, “Back to GroEL-Assisted Protein Folding: GroES Binding-Induced Displacement of Denatured Proteins from GroEL to Bulk Solution” (Biomolecules, 2020).

B1: GroES co-chaperonin (natural protein, Escherichia coli, UniProt P0A6F9 1-97, looked up)
chain: MNIRPLHDRVIVKRKEVETKSAGGIVLTGSAAAKSTRGEVLAVGNGRILENGEVKPLDVKVGDIVIFNDGYGVKSEKIDNEEVLIMSESDILAIVEA
notes: GroES (hsp10) co-chaperonin of Escherichia coli, expressed from the cloned groE operon; 7 identical subunits of ~10 kDa; no tag is mentioned; also called hsp10; GroES7; source: E. coli HB101, multicopy plasmid pGroE4 (groE operon of E. coli in pACYC184), purified
B2: biotin- and fluorescein-labeled pig mitochondrial malate dehydrogenase, early refolding intermediate (natural protein, UniProt P00346 25-338, looked up)
chain: AKVAVLGASGGIGQPLSLLLKNSPLVSRLTLYDIAHTPGVAADLSHIETRATVKGYLGPEQLPDCLKGCDVVVIPAGVPRKPGMTRDDLFNTNATIVATLTAACAQHCPDAMICIISNPVNSTIPITAEVFKKHGVYNPNKIFGVTTLDIVRANAFVAELKGLDPARVSVPVIGGHAGKTIIPLISQCTPKVDFPQDQLSTLTGRIQEAGTEVVKAKAGAGSATLSMAYAGARFVFSLVDAMNGKEGVVECSFVKSQETDCPYFSTPLLLGKKGIEKNLGIGKISPFEEKMIAEAIPELKASIKKGEEFVKNMK
modifications: fluorescein label (5(6)-FAM, SE); biotin (biotin succinimide ester)
notes: pig mitochondrial malate dehydrogenase; also called BFM; MDH; source: bought: Sigma or Serva, additionally purified by ion-exchange and size-exclusion chromatography

Experiments:
GroEL chaperonin [1] = target: T1, GroEL chaperonin (Escherichia coli, UniProt P0A6F5 1-548); assay: native gel or EMSA; non-denaturing electrophoresis of GroEL with equimolar fluorescein-labeled denatured proteins in the presence of DTT and Mg-ADP, before and after 10 min incubation with a two-fold molar excess of GroES; Coomassie staining and fluorescence; settings: both partners purified
T1 construct: GroEL (hsp60) chaperonin of Escherichia coli, expressed from the cloned groE operon; 14 identical subunits of 57 kDa in two heptameric rings; no tag is mentioned; also called hsp60; GroEL14; source: E. coli HB101, multicopy plasmid pGroE4 (groE operon of E. coli in pACYC184), purified; copies: 14
T1 sequence (P0A6F5 whole entry): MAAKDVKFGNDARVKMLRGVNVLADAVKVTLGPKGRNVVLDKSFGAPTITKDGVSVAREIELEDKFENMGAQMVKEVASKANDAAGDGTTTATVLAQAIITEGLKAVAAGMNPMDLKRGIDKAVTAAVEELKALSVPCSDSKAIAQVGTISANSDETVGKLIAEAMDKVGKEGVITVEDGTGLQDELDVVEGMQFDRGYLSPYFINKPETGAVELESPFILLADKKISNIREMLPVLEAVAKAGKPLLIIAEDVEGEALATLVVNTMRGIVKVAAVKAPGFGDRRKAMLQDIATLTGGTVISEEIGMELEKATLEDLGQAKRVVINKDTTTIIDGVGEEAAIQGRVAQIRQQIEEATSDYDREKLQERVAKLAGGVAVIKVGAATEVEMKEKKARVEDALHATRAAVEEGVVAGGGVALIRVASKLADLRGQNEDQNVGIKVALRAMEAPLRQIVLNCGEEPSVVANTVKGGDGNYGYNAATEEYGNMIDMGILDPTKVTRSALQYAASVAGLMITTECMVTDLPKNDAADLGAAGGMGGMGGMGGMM

GroEL chaperonin [2] = target: T1, GroEL chaperonin; assay: FRET or BRET; streptavidin trap: denatured biotin- and fluorescein-labeled substrate diluted into equimolar GroEL, then streptavidin-aequorin and free biotin added; BRET (I520/I470) from aequorin to fluorescein reports substrate free in bulk solution; with or without 10 mM Mg-ATP and two-fold molar excess of GroES; settings: both partners purified

| binding result (GroEL chaperonin [1]) | binding result (GroEL chaperonin [2]) | Binder |
| --- | --- | --- |
| binds | – | B1 |
| – | binds | B2 |
